Molecular target: T1, stabilized SARS-CoV-2 Omicron S ECD HexaPro (SARS-CoV-2 Omicron BA.1, stabilised)
T1 construct: also called prefusion Omicron BA.1 S trimer; BA.1 S
Assay: cryo-EM structure
Settings: both partners purified

B1: 58G6 Fab (Fab, V domains shown)
VH: QMQLVQSGPEVKKPGTSVKVSCKASGFTFSSSAVQWVRQARGQHLEWIGWIVVGSGNTNYAQKFQERVTLTRDMSTRTAYMELSSLRSEDTAVYYCAAPNCNSTTCHDGFDIWGQGTVVTVSS
VL: EIVLTQSPGTLSLSPGERATLSCRASQSVRSSYLGWYQQKPGQAPRLLIYGASSRATGIPDRFSGSGSGTDFTLTISRLESEDFAVYYCQQYDNSPWTFGQGTKVEIK
stoichiometry N: 1 Fabs per S trimer

— publication PMC11128199 (JCI Insight, 2024)
